Earlier results as cited in paper PMC3125604.

Target: Prolactin receptor (site 2) (Homo sapiens) (UniProt P16471)
Assay: surface plasmon resonance

UniProt P16471, sequence (P16471 25-234): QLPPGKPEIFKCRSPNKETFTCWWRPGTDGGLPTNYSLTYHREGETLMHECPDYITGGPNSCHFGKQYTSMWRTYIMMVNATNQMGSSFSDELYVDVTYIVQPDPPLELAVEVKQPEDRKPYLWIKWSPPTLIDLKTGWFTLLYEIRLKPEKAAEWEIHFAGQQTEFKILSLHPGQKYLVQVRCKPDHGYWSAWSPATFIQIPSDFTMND

- Kd: 33 µM
Substance: Prolactin (hPRL) (from UniProt P01236)
